From paper PMC9482650, “Quantitative fragmentomics allow affinity mapping of interactomes” (Nature Communications, 2022)

How the values were obtained:
Test in all cases: holdup assay
Set-up in all cases: key: below the threshold = too weak to quantify, mostly under pKd 3.1 to 4
Conditions in all cases: plain residues with an end cap or a label only (N-terminal biotin on a linker: ado-ado)
ARHGEF11, O15085 = target: T1, ARHGEF11, O15085
T1 sequence (O15085 42-136, limits assumed, looked up): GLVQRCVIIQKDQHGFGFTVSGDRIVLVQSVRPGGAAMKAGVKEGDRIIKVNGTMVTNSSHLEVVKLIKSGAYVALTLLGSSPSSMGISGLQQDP

DFNB31_2, Q9P202 = target: T2, DFNB31_2, Q9P202
T2 sequence (Q9P202 274-371, limits assumed, looked up): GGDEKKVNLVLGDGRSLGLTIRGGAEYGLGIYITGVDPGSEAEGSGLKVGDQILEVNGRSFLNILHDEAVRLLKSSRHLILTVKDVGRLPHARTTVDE

SNX27, Q96L92 = target: SNX27, Q96L92
SCRIB_1, Q14160 = target: SCRIB_1, Q14160
CASK, O14936 = target: CASK, O14936
SNTB1, Q13884 = target: T3, SNTB1, Q13884
T3 sequence (Q13884 107-205, limits assumed, looked up): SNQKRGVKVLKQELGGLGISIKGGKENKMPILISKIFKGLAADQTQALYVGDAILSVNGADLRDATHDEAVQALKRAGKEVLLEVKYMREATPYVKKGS

Inadl_10, Q8NI35 = target: Inadl_10, Q8NI35
HTRA3, P83110 = target: T4, HTRA3, P83110
T4 sequence (P83110 354-453, limits assumed, looked up): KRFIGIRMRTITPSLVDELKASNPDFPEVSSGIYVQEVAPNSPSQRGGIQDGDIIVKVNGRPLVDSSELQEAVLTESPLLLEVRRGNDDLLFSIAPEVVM

RAPGEF6, Q8TEU7 = target: T5, RAPGEF6, Q8TEU7
T5 sequence (Q8TEU7 525-625, limits assumed, looked up): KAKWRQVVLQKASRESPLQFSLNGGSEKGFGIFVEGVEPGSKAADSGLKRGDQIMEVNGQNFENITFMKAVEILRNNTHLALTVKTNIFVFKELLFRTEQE

GOPC, Q9HD26 = target: GOPC, Q9HD26
LNX2_2, Q8N448 = target: T6, LNX2_2, Q8N448
T6 sequence (Q8N448 334-432, limits assumed, looked up): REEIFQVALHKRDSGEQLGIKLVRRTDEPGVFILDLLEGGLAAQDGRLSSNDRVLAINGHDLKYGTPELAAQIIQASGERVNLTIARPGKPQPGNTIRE

MPDZ_12, O75970 = target: T7, MPDZ_12, O75970
T7 sequence (O75970 1857-1958, limits assumed, looked up): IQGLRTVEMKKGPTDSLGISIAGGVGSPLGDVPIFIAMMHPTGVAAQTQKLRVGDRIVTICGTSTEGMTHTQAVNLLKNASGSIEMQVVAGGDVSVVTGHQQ

Inadl_4, Q8NI35 = target: Inadl_4, Q8NI35
DFNB31_3, Q9P202 = target: T8, DFNB31_3, Q9P202
T8 sequence (Q9P202 811-907, limits assumed, looked up): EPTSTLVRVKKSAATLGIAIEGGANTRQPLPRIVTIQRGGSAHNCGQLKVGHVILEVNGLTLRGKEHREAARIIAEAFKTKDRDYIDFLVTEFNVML

DLG1_1, Q12959 = target: DLG1_1, Q12959
PTPN3, P26045 = target: PTPN3, P26045
IL16_3, Q14005 = target: IL16_3, Q14005
NHERF4_2, Q86UT5 = target: NHERF4_2, Q86UT5
DLG1_2, Q12959 = target: DLG1_2, Q12959
TJP3_3, O95049 = target: T9, TJP3_3, O95049
T9 sequence (O95049 375-456, limits assumed, looked up): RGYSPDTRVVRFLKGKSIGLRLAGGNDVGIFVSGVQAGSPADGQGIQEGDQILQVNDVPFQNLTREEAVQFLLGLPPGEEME

PICK1, Q9NRD5 = target: PICK1, Q9NRD5
TJP1_3, Q07157 = target: TJP1_3, Q07157
GIPC2, Q8TF65 = target: GIPC2, Q8TF65
MAGI2_6, Q86UL8 = target: MAGI2_6, Q86UL8
SNTG1, Q9NSN8 = target: T10, SNTG1, Q9NSN8
T10 sequence (Q9NSN8 52-150, limits assumed, looked up): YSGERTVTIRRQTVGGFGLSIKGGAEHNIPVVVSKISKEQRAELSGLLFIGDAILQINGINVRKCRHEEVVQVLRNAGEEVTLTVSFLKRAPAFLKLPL

APBA3_1, O96018 = target: T11, APBA3_1, O96018
T11 sequence (O96018 389-490, limits assumed, looked up): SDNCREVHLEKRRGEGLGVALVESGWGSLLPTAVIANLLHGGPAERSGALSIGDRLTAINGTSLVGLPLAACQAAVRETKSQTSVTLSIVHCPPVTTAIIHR

NOS1, P29475 = target: NOS1, P29475
NOS1, P29475, sequence (P29475 9-101): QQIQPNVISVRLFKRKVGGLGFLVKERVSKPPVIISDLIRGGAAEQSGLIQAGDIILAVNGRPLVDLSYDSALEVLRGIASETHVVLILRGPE

CASK, O14936, sequence (O14936 487-570): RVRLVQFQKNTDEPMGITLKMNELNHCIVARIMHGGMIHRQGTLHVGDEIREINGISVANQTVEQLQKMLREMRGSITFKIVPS
PICK1, Q9NRD5, sequence (Q9NRD5 17-115): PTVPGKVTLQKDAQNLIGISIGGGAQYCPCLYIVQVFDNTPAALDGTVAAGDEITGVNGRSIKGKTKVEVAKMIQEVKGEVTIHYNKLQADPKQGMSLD
IL16_3, Q14005, sequence (Q14005 1107-1207): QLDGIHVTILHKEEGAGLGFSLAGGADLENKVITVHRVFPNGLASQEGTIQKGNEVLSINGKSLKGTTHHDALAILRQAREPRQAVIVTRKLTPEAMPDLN
SCRIB_1, Q14160, sequence (Q14160 718-814): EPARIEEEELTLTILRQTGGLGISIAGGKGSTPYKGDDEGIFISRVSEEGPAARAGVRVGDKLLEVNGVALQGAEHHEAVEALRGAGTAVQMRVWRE
NHERF4_2, Q86UT5, sequence (Q86UT5 220-308): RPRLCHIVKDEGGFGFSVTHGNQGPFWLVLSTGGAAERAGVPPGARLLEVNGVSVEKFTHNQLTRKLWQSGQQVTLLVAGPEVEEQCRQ
Inadl_4, Q8NI35, sequence (Q8NI35 547-651): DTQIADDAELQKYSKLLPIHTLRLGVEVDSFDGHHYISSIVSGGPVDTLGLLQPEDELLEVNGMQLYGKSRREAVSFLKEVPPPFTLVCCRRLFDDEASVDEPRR
MAGI2_6, Q86UL8, sequence (Q86UL8 1141-1229): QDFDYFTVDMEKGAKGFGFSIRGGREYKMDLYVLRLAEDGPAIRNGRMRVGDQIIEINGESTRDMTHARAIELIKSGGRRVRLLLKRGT
GIPC2, Q8TF65, sequence (Q8TF65 112-203): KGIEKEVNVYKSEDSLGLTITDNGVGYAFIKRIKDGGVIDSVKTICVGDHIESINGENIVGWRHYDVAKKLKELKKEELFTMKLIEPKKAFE
PTPN3, P26045, sequence (P26045 505-587): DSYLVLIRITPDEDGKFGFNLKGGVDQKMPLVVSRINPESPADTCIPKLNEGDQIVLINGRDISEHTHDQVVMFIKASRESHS
TJP1_3, Q07157, sequence (Q07157 416-512): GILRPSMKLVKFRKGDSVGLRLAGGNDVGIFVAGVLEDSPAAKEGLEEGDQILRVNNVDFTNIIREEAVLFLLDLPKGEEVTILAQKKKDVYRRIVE
Inadl_10, Q8NI35, sequence (Q8NI35 1673-1763): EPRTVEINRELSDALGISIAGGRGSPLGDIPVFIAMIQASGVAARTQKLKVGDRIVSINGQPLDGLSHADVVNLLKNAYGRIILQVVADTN

Binder: MQILSKPEFI [NPSR1, Q6W5P4]
- pKd (ARHGEF11, O15085): below the threshold
- pKd (DFNB31_2, Q9P202): below the threshold
- pKd (SNX27, Q96L92): below the threshold
- pKd (SCRIB_1, Q14160): below the threshold
- pKd (CASK, O14936): below the threshold
- pKd (SNTB1, Q13884): below the threshold
- pKd (Inadl_10, Q8NI35): below the threshold
- pKd (HTRA3, P83110): 4.61
- pKd (RAPGEF6, Q8TEU7): below the threshold
- pKd (GOPC, Q9HD26): below the threshold
- pKd (LNX2_2, Q8N448): below the threshold
- pKd (MPDZ_12, O75970): 3.56
- pKd (Inadl_4, Q8NI35): below the threshold
- pKd (DFNB31_3, Q9P202): below the threshold
- pKd (DLG1_1, Q12959): below the threshold
- pKd (PTPN3, P26045): 3.94
- pKd (IL16_3, Q14005): below the threshold
- pKd (NHERF4_2, Q86UT5): below the threshold
- pKd (DLG1_2, Q12959): below the threshold
- pKd (TJP3_3, O95049): below the threshold
- pKd (PICK1, Q9NRD5): 4.08
- pKd (TJP1_3, Q07157): below the threshold
- pKd (GIPC2, Q8TF65): below the threshold
- pKd (MAGI2_6, Q86UL8): below the threshold
- pKd (SNTG1, Q9NSN8): below the threshold
- pKd (APBA3_1, O96018): below the threshold
- pKd (NOS1, P29475): 3.84

Binder: KIEDVEITLV [FCHSD2, O94868]
- pKd (ARHGEF11, O15085): 4.42
- pKd (DFNB31_2, Q9P202): below the threshold
- pKd (SNX27, Q96L92): 5.01
- pKd (SCRIB_1, Q14160): 3.8
- pKd (CASK, O14936): below the threshold
- pKd (SNTB1, Q13884): 3.95
- pKd (Inadl_10, Q8NI35): below the threshold
- pKd (HTRA3, P83110): 3.71
- pKd (RAPGEF6, Q8TEU7): below the threshold
- pKd (GOPC, Q9HD26): 4.09
- pKd (LNX2_2, Q8N448): 5.6
- pKd (MPDZ_12, O75970): below the threshold
- pKd (Inadl_4, Q8NI35): below the threshold
- pKd (DFNB31_3, Q9P202): 4.79
- pKd (DLG1_1, Q12959): 3.79
- pKd (PTPN3, P26045): 3.5
- pKd (IL16_3, Q14005): below the threshold
- pKd (NHERF4_2, Q86UT5): below the threshold
- pKd (DLG1_2, Q12959): 4.3
- pKd (TJP3_3, O95049): below the threshold
- pKd (PICK1, Q9NRD5): below the threshold
- pKd (TJP1_3, Q07157): below the threshold
- pKd (GIPC2, Q8TF65): below the threshold
- pKd (MAGI2_6, Q86UL8): 4.24
- pKd (SNTG1, Q9NSN8): 4.14
- pKd (APBA3_1, O96018): below the threshold
- pKd (NOS1, P29475): 3.8

Binder: KEKASTETEC [TRPM1, Q7Z4N2]
- pKd (ARHGEF11, O15085): below the threshold
- pKd (DFNB31_2, Q9P202): below the threshold
- pKd (SNX27, Q96L92): 4.53
- pKd (SCRIB_1, Q14160): 4.31
- pKd (CASK, O14936): below the threshold
- pKd (SNTB1, Q13884): 4.17
- pKd (Inadl_10, Q8NI35): below the threshold
- pKd (HTRA3, P83110): 3.58
- pKd (RAPGEF6, Q8TEU7): below the threshold
- pKd (GOPC, Q9HD26): below the threshold
- pKd (LNX2_2, Q8N448): below the threshold
- pKd (MPDZ_12, O75970): below the threshold
- pKd (Inadl_4, Q8NI35): below the threshold
- pKd (DFNB31_3, Q9P202): 3.64
- pKd (DLG1_1, Q12959): 3.96
- pKd (PTPN3, P26045): 4.9
- pKd (IL16_3, Q14005): below the threshold
- pKd (NHERF4_2, Q86UT5): below the threshold
- pKd (DLG1_2, Q12959): 4.23
- pKd (TJP3_3, O95049): below the threshold
- pKd (PICK1, Q9NRD5): below the threshold
- pKd (TJP1_3, Q07157): below the threshold
- pKd (GIPC2, Q8TF65): 4.1
- pKd (MAGI2_6, Q86UL8): below the threshold
- pKd (SNTG1, Q9NSN8): below the threshold
- pKd (APBA3_1, O96018): below the threshold
- pKd (NOS1, P29475): below the threshold

Binder: QKASRNESTF [POLR1D, P0DPB6]
- pKd (ARHGEF11, O15085): below the threshold
- pKd (DFNB31_2, Q9P202): below the threshold
- pKd (SNX27, Q96L92): 4.29
- pKd (SCRIB_1, Q14160): 3.55
- pKd (CASK, O14936): below the threshold
- pKd (SNTB1, Q13884): below the threshold
- pKd (Inadl_10, Q8NI35): below the threshold
- pKd (HTRA3, P83110): below the threshold
- pKd (RAPGEF6, Q8TEU7): below the threshold
- pKd (GOPC, Q9HD26): below the threshold
- pKd (LNX2_2, Q8N448): below the threshold
- pKd (MPDZ_12, O75970): below the threshold
- pKd (Inadl_4, Q8NI35): below the threshold
- pKd (DFNB31_3, Q9P202): below the threshold
- pKd (DLG1_1, Q12959): below the threshold
- pKd (PTPN3, P26045): 4.62
- pKd (IL16_3, Q14005): below the threshold
- pKd (NHERF4_2, Q86UT5): below the threshold
- pKd (DLG1_2, Q12959): 3.64
- pKd (TJP3_3, O95049): below the threshold
- pKd (PICK1, Q9NRD5): 4.01
- pKd (TJP1_3, Q07157): below the threshold
- pKd (GIPC2, Q8TF65): below the threshold
- pKd (MAGI2_6, Q86UL8): below the threshold
- pKd (SNTG1, Q9NSN8): below the threshold
- pKd (APBA3_1, O96018): below the threshold
- pKd (NOS1, P29475): below the threshold

Binder: RDYTQSSSSL [GRM5, P41594]
- pKd (ARHGEF11, O15085): 3.79
- pKd (DFNB31_2, Q9P202): below the threshold
- pKd (SNX27, Q96L92): 4.25
- pKd (SCRIB_1, Q14160): below the threshold
- pKd (CASK, O14936): below the threshold
- pKd (SNTB1, Q13884): below the threshold
- pKd (Inadl_10, Q8NI35): below the threshold
- pKd (HTRA3, P83110): below the threshold
- pKd (RAPGEF6, Q8TEU7): below the threshold
- pKd (GOPC, Q9HD26): 3.55
- pKd (LNX2_2, Q8N448): below the threshold
- pKd (MPDZ_12, O75970): below the threshold
- pKd (Inadl_4, Q8NI35): below the threshold
- pKd (DFNB31_3, Q9P202): below the threshold
- pKd (DLG1_1, Q12959): below the threshold
- pKd (PTPN3, P26045): 4.27
- pKd (IL16_3, Q14005): below the threshold
- pKd (NHERF4_2, Q86UT5): below the threshold
- pKd (DLG1_2, Q12959): below the threshold
- pKd (TJP3_3, O95049): below the threshold
- pKd (PICK1, Q9NRD5): 4.11
- pKd (TJP1_3, Q07157): below the threshold
- pKd (GIPC2, Q8TF65): below the threshold
- pKd (MAGI2_6, Q86UL8): 3.49
- pKd (SNTG1, Q9NSN8): below the threshold
- pKd (APBA3_1, O96018): below the threshold
- pKd (NOS1, P29475): below the threshold
